B4: Arabidopsis COP1^349–675 WD40 domain (domain or fragment)
chain: TFTRYSRLRVIAEIRHGDIFHSANIVSSIEFDRDDELFATAGVSRCIKVFDFSSVVNEPADMQCPIVEMSTRSKLSCLSWNKHEKNHIASSDYEGIVTVWDVTTRQSLMEYEEHEKRAWSVDFSRTEPSMLVSGSDDCKVKVWCTRQEASVINIDMKANICCVKYNPGSSNYIAVGSADHHIHYYDLRNISQPLHVFSGHKKAVSYVKFLSNNELASASTDSTLRLWDVKDNLPVRTFRGHTNEKNFVGLTVNSEYLACGSETNEVYVYHKEITRPVTSHRFGSPDMDDAEEEAGSYFISAVCWKSDSPTMLTANSQGTIKVLVLAA

For assay [1], the target named is B4.
Assay [2] has as its target B4.
The target of assay [3] is B4.
Assay [4] deals with B4.
Assay [5] addresses T1, COP1^349–675,Lys422Ala WD40 domain (Arabidopsis, UniProt P43254 349-675, Lys422Ala).
T1 sequence: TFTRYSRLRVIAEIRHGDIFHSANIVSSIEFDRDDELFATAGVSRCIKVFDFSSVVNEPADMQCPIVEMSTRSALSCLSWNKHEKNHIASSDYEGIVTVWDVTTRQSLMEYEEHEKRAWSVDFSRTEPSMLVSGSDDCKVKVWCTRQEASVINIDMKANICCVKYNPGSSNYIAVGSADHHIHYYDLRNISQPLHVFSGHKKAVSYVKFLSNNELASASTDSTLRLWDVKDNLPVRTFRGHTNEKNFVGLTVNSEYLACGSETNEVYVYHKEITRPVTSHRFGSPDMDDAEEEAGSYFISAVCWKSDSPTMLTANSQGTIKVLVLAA
The assay is described as follows: ITC. For orientation: In ITC the heat of successive injections is recorded.

Assay [6] addresses B4. The assay is described as follows: ITC.
In assay [7] the target is T1, COP1^349–675,Lys422Ala WD40 domain. The assay is described as follows: ITC. The source holds these as a separate data set.
Assay [8] has as its target B4. The assay is described as follows: ITC.
The target in assay [9] is T2, COP1^Tyr441Ala WD40 domain (Arabidopsis, UniProt P43254 349-675, Tyr441Ala).
T2 sequence: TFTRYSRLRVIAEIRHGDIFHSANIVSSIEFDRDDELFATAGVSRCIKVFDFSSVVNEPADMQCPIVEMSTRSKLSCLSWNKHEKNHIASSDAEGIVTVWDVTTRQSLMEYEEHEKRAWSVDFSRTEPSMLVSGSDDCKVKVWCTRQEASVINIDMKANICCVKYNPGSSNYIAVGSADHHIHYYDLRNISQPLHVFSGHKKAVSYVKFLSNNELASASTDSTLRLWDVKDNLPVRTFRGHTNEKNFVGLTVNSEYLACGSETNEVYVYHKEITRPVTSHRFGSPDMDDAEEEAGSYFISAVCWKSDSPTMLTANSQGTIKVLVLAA
The assay is described as follows: ITC.

Assay [10] deals with UVR8^HY5C44 chimera (recombinant) (Arabidopsis, UniProt Q9FN03). The assay is described as follows: UV-B-activated chimera.
In assay [11] the target is T3, UVR8^ValPro/AlaAla (recombinant) (Arabidopsis, UniProt Q9FN03 1-440, ValPro/AlaAla).
T3 sequence: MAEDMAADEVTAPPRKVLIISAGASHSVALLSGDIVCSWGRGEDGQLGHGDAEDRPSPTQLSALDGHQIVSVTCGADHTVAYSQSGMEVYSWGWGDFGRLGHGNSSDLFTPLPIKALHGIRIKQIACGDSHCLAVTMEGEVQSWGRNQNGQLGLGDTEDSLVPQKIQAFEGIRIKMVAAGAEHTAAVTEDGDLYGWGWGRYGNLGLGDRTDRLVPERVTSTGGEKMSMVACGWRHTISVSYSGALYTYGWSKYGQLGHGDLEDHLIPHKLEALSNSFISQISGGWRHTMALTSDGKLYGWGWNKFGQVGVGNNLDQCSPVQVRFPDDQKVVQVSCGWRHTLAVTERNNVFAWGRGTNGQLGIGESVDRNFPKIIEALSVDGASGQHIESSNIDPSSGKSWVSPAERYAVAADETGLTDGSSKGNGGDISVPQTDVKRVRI

Assay [12] has as its target B4. The assay is described as follows: ITC.

Read-outs that look alike come from different tables or passages of the source.

B1: UVR8^TRIB1VP chimera (recombinant) (other)
chain: MAEDMAADEVTAPPRKVLIISAGASHSVALLSGDIVCSWGRGEDGQLGHGDAEDRPSPTQLSALDGHQIVSVTCGADHTVAYSQSGMEVYSWGWGDFGRLGHGNSSDLFTPLPIKALHGIRIKQIACGDSHCLAVTMEGEVQSWGRNQNGQLGLGDTEDSLVPQKIQAFEGIRIKMVAAGAEHTAAVTEDGDLYGWGWGRYGNLGLGDRTDRLVPERVTSTGGEKMSMVACGWRHTISVSYSGALYTYGWSKYGQLGHGDLEDHLIPHKLEALSNSFISQISGGWRHTMALTSDGKLYGWGWNKFGQVGVGNNLDQCSPVQVRFPDDQKVVQVSCGWRHTLAVTERNNVFAWGRGTNGQLGIGESVDRNFPKIIEALSVDGASGQHIESSNIDPSSGKSWVSPAESDQIVPEY
For the molecule B1, in assay [1], binding was put at a Kd of 0.093 µM. In addition, the dissociation rate constant (koff) (as a rule, a measure of how fast the partners let go of each other) in assay [2] is 0.0319 s⁻¹.

B2: UVR8^HY5VP chimera (recombinant) (other)
chain: MAEDMAADEVTAPPRKVLIISAGASHSVALLSGDIVCSWGRGEDGQLGHGDAEDRPSPTQLSALDGHQIVSVTCGADHTVAYSQSGMEVYSWGWGDFGRLGHGNSSDLFTPLPIKALHGIRIKQIACGDSHCLAVTMEGEVQSWGRNQNGQLGLGDTEDSLVPQKIQAFEGIRIKMVAAGAEHTAAVTEDGDLYGWGWGRYGNLGLGDRTDRLVPERVTSTGGEKMSMVACGWRHTISVSYSGALYTYGWSKYGQLGHGDLEDHLIPHKLEALSNSFISQISGGWRHTMALTSDGKLYGWGWNKFGQVGVGNNLDQCSPVQVRFPDDQKVVQVSCGWRHTLAVTERNNVFAWGRGTNGQLGIGESVDRNFPKIIEALSVDGASGQHIESSNIDPSSGKSWVSPAEEIRRVPEFTGLTDGSSKGNGGDISVPQTDVKRVRI
As for B2, the Kd (commonly the equilibrium constant for the complex coming apart) in assay [1] turned out to be 0.069 µM. This molecule also displayed a koff in assay [2] of 0.0532 s⁻¹.

B3: full‐length HY5 protein (recombinant) (natural protein)
chain: MQEQATSSLAASSLPSSSERSSSSAPHLEIKEGIESDEEIRRVPEFGGEAVGKETSGRESGSATGQERTQATVGESQRKRGRTPAEKENKRLKRLLRNRVSAQQARERKKAYLSELENRVKDLENKNSELEERLSTLQNENQMLRHILKNTTGNKRGGGGGSNADASL
The molecule B3 registered a koff in [3] of 0.0832 s⁻¹. In assay [4], the Kd was determined as 1.2 µM.

Take GFGVVPSF [COL3^287–294 VP peptide]: the values for the equilibrium dissociation constant (Kd) in assay [5] and in assay [6] were 7.8 µM and 39 µM, respectively.

On to RYAVVPDE [UVR8^406–413 VP peptide], for which the equilibrium dissociation constant (Kd) in assay [7] came to 16 µM; in assay [8] it was 190 µM.

As for EDQMVPSIT [CRY1^544–552 VP peptide], the Kd in [5] came out at 76 µM; in [6], 3 µM.

Turning to EIRRVPEFGG [HY5^39–48 VP peptide], the Kd in assay [9] amounted to 230 µM; in [7], 23 µM; in [8], 23 µM.

Regarding B4, the values for the Kd in [10] and in assay [11] were 0.269 µM and 2.2 µM, respectively.

Regarding NDQQVPSAV [CRY2^527–535 VP peptide], the Kd in assay [5] was determined as 560 µM; in assay [6] it was 21 µM.

GYGIVPSF [CO^366–373 VP peptide]: the dissociation constant (Kd) in assay [5] turned out to be 21 µM; in assay [6], 74 µM.

In turn, SDQIVPEY [TRIB1 VP peptide] registered a Kd in assay [12] of 1.6 µM.
